In patent US20240109968A1 (NEW YORK UNIVERSITY, published 2024):

Target: T1, human galectin-9 CRD2 domain (human, UniProt O00182 227-355, limits assumed)
T1 construct: domain: CRD2; also called human CRD2 domain of galectin-9
Assay: ELISA; antibody titrated over immobilized Galectin-9 CRD2, saturation curve

T1 sequence (O00182 227-355 limits assumed): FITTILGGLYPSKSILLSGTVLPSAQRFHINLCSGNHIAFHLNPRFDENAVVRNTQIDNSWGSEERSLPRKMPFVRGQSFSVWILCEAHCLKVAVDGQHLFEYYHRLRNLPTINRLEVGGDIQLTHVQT

B1: anti-Galectin-9 antibody G9.2-17 (IgG4) (antibody, V domains shown)
VH: EVQLVESGGGLVQPGGSLRLSCAASGFTVSSSSIHWVRQAPGKGLEWVAYISSSSGYTYYADSVKGRFTISADTSKNTAYLQMNSLRAEDTAVYYCARYWSYPSWWPYRGMDYWGQGTLVTVSS
VL: DIQMTQSPSSLSASVGDRVTITCRASQSVSSAVAWYQQKPGKAPKLLIYSASSLYSGVPSRFSGSRSGTDFTLTISSLQPEDFATYYCQQSSTDPITFGQGTKVEIKR
notes: Human IgG4 with S228P (EU); also called G9.2-17(Ig4); G9.2-17 hIgG4 Fab Arm Exchange mut
For B1, the Kd was less than 1 nM.
